{"source": "paper PMC5529715", "target": "MBP-A3H hap II (APOBEC3H haplotype II, splicing variant SV182, MBP fusion) (human)", "assay": "SEC-MALS", "data": [{"substance": "MBP-A3H hap II (APOBEC3H haplotype II, splicing variant SV182, MBP fusion) (enzyme)", "values": [{"measurement": "stoichiometry N", "result": "14 to 15", "unit": "monomers"}]}]}
